Test results reported in patent US20160137740A1 (AstraZeneca / MedImmune, published 2016).

T1: Recombinant human TNFRSF14 (HVEM) (human, UniProt Q92956 39-202, limits assumed)
T1 construct: Plate-adsorbed antigen of the ELISA
T1 sequence (looked up): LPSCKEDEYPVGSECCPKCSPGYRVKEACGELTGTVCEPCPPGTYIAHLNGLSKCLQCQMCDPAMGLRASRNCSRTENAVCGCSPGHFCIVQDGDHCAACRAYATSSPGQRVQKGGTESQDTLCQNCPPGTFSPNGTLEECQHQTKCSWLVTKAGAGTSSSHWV

T2: Recombinant human TNFRSF16 (NGFR) (human, UniProt P08138 29-250)
T2 construct: Plate-adsorbed antigen of the ELISA
T2 sequence (looked up): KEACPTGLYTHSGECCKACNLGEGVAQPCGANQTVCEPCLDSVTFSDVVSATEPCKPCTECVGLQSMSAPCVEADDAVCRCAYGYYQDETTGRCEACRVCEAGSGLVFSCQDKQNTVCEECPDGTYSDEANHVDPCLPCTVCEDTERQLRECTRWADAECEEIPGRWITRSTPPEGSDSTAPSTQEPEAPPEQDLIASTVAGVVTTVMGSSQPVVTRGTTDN

T3: Recombinant human TNFRSF1β (TNFRII) (human, UniProt P20333 23-257)
T3 construct: Plate-adsorbed antigen of the ELISA; also called TNFR2; TNFRSF1B
T3 sequence (looked up): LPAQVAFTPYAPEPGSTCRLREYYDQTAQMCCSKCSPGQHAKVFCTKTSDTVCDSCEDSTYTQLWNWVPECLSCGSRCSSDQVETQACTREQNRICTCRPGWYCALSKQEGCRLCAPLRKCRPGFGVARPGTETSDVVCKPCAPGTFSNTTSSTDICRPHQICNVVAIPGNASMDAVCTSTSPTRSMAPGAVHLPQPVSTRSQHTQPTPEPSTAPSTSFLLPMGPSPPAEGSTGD

T4: Recombinant human TNFRSF21 (DR6) (human, UniProt O75509 42-349, limits assumed)
T4 construct: Plate-adsorbed antigen of the ELISA
T4 sequence (looked up): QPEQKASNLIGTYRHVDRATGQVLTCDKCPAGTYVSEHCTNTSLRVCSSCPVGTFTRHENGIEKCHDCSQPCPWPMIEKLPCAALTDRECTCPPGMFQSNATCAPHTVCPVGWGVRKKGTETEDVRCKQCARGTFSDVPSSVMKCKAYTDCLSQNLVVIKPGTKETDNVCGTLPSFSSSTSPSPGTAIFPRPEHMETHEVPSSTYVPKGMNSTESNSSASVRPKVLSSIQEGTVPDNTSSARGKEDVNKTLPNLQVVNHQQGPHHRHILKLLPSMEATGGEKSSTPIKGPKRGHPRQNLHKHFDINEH

T5: Recombinant human TNFRSF11A (RANK) (human, UniProt Q9Y6Q6 30-212)
T5 construct: Plate-adsorbed antigen of the ELISA; also called CD265
T5 sequence (looked up): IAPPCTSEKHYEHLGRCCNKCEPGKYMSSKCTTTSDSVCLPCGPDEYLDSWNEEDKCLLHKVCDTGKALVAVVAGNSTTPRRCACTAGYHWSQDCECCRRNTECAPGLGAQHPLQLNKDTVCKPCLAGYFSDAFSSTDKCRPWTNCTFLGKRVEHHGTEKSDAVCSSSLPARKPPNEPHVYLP

T6: Recombinant human TNFRSF18 (GITR) (human, UniProt Q9Y5U5 26-162, limits assumed)
T6 construct: Plate-adsorbed antigen of the ELISA
T6 sequence (looked up): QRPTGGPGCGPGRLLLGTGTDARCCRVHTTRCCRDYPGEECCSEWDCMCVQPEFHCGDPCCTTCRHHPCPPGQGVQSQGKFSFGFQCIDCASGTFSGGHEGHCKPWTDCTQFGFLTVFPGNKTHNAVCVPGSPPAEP

T7: Recombinant human TNFRSF11B (OPG) (human, UniProt O00300 22-401, limits assumed)
T7 construct: Plate-adsorbed antigen of the ELISA; also called osteoprotegerin
T7 sequence (looked up): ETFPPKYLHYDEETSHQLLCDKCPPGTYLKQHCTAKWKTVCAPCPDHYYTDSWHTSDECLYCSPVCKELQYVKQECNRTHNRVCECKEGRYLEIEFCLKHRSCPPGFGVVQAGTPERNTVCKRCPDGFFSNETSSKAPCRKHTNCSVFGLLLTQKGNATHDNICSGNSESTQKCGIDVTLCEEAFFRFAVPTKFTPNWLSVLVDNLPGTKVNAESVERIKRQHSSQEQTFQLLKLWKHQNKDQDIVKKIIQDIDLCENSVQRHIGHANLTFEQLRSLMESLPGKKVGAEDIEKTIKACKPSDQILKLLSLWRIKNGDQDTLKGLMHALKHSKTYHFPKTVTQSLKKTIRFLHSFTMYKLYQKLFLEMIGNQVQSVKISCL

T8: Recombinant human TNFRSF6 (FAS) (human, UniProt P25445 26-173)
T8 construct: Plate-adsorbed antigen of the ELISA
T8 sequence (looked up): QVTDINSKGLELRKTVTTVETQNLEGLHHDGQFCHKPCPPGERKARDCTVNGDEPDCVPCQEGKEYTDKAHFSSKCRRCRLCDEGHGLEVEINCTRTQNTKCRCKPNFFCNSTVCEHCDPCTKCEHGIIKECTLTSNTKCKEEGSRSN

T9: Mouse OX40 (mouse, UniProt P47741 20-272)
T9 construct: also called mOX40; murine OX40
T9 sequence: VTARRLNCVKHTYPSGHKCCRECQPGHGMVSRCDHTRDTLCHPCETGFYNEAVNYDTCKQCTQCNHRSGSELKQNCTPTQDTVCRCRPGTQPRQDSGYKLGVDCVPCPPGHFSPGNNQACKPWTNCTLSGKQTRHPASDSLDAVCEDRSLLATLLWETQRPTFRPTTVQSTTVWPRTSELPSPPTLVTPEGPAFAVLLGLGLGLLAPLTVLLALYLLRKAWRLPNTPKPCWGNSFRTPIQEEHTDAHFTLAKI

B1: OX40mAb29 (antibody, human IgG1, kappa)
heavy: QVQLQESGPGLVKPSQTLSLTCAVYGGSFSSGYWNWIRKHPGKGLEYIGYISYNGITYHNPSLKSRITINRDTSKNQYSLQLNSVTPEDTAVYYCARYKYDYDGGHAMDYWGQGTLVTVSSASTKGPSVFPLAPSSKSTSGGTAALGCLVKDYFPEPVTVSWNSGALTSGVHTFPAVLQSSGLYSLSSVVTVPSSSLGTQTYICNVNHKPSNTKVDKRVEPKSCDKTHTCPPCPAPEFEGGPSVFLFPPKPKDTLMISRTPEVTCVVVDVSHEDPEVKFNWYVDGVEVHNAKTKPREEQYNSTYRVVSVLTVLHQDWLNGKEYKCKVSNKALPASIEKTISKAKGQPREPQVYTLPPSREEMTKNQVSLTCLVKGFYPSDIAVEWESNGQPENNYKTTPPVLDSDGSFFLYSKLTVDKSRWQQGNVFSCSVMHEALHNHYTQKSLSLSPGK
light: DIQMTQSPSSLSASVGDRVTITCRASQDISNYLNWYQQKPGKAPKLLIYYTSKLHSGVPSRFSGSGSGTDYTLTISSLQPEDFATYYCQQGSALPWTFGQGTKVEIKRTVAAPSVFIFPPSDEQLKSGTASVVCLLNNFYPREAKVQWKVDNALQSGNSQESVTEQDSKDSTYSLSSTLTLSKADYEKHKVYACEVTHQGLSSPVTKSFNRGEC
notes: also called Anti OX40 mAb29; IgG1 triple mutant (IgG1-TM) version of OX40mAb24
B2: Rat anti-mouse OX40, clone OX86 (antibody, V domains shown)
VH: QVQLKESGPGLVQPSQTLSLTCTVSGFSLTGYNLHWVRQPPGKGLEWMGRMRYDGDTYYNSVLKSRLSISRDTSKNQVFLKMNSLQTDDTAIYYCTRDGRGDSFDYWGQGVMVTVSS
VL: DIVMTQGALPNPVPSGESASITCRSSQSLVYKDGQTYLNWFLQRPGQSPQLLTYWMSTRASGVSDRFSGSGSGTYFTLKISRVRAEDAGVYYCQQVREYPFTFGSGTKLEIK
notes: Rat IgG1κ; also called anti-mouse CD134 (OX86 clone) antibody

Tests used:
[1] = biological target: T1, Recombinant human TNFRSF14 (HVEM); assay: ELISA, plate coated with a dilution series of the recombinant TNFRSF protein [panel A]
Procedure: (§1) An eight point, two-fold dilution series of each recombinant human TNFRSF protein was prepared after dilution of stock proteins to 5 μg/mL in PBS. Subsequently, 50 μL of each antigen dilution was transferred in duplicate to wells of a Nunc 96-well MaxiSorp flat bottom plate, and incubated overnight at 4° C. to adsorb proteins to the plate. Afterwards, plates were washed three times with PBS in a BioTek® plate washer to remove unbound protein. Anti OX40 mAb29, 9B12, and control antibodies were diluted in PBS to a final concentration of 10 μg/mL, and 50 μL of mAb were added to each well and incubated at room temperature for one hour to bind mAb to plate-bound protein. Thereafter, wells were washed with PBS/Tween-20 0.1% (volume/volume) using a BioTek® plate washer. HRP conjugated goat anti-human or goat anti-mouse secondary antibodies at 10 μg/mL was added to each well and incubated at room temperature for 1 hour. After three washes in PBS/Tween-20 0.1%, 50 μL of TMB substrate was added to each well and incubated at room temperature for 5 minutes to develop the colorimetric product. Reactions were stopped by adding 50 μL of 0.5 molar H₂SO₄ to wells, and plates read immediately at 450 nm using an Envision C plate reader for detection of the colorimetric product.

[2] = biological target: T2, Recombinant human TNFRSF16 (NGFR); assay: as above
Procedure: as §1

[3] = biological target: T3, Recombinant human TNFRSF1β (TNFRII); assay: as above
Procedure: as §1

[4] = biological target: T10, Recombinant human TNFRSF3 (LTβR) (human, UniProt P36941 28-227, limits assumed); assay: as above
T10 construct: Plate-adsorbed antigen of the ELISA
Procedure: as §1

[5] = biological target: T4, Recombinant human TNFRSF21 (DR6); assay: as above
Procedure: as §1

[6] = biological target: T11, Recombinant human TNFRSF5 (CD40) (human, UniProt P25942 21-193); assay: as above
T11 construct: Plate-adsorbed antigen of the ELISA
Procedure: as §1

[7] = biological target: T5, Recombinant human TNFRSF11A (RANK); assay: as above
Procedure: as §1

[8] = biological target: T6, Recombinant human TNFRSF18 (GITR); assay: as above
Procedure: as §1

[9] = biological target: T7, Recombinant human TNFRSF11B (OPG); assay: as above
Procedure: as §1

[10] = biological target: T12, Recombinant human TNFRSF9 (CD137) (human, UniProt Q07011 24-186, limits assumed); assay: as above
T12 construct: Plate-adsorbed antigen of the ELISA
Procedure: as §1

[11] = biological target: T8, Recombinant human TNFRSF6 (FAS); assay: as above
Procedure: as §1

Mouse OX40 = biological target: T9, Mouse OX40; assay: flow cytometry on activated primary mouse CD4+ T cells
Procedure: Mouse CD4⁺ T cells (150,000 per well in 100 μL complete medium) were cultured overnight in 96-well plates coated with 2 μg/mL each hamster anti-mouse CD3 and hamster anti-mouse CD28 antibodies to activate T cells and induce OX40 expression. Activated CD4⁺ T cells were removed from the incubation plate and 100,000 cells were transferred to each well of a non-tissue culture-treated 96-well round-bottom plate for binding assays and washed once with FACS buffer. Binding was performed with 10 μg/mL of OX40mAb24, 9B12 and rat anti-mouse OX40, clone OX86 (positive control) antibodies each serially diluted 3-fold in FACS buffer for a 10-point data curve. For negative controls, 10 μg/mL R347 human IgG1, MOPC-21 mouse IgG1 or RTK2071 rat IgG1 were diluted 6-fold for a 3 point data curve. FACS buffer (50 μL) containing OX40mAb24, or antibodies, was added to CD4⁺ T cells in duplicate and incubated. Following primary incubation, cells were washed with 200 μL of 4° C. […] Following secondary antibody incubation, cells were washed with 4° C. FACS buffer (200 μL per wash) and suspended in 100 μL FACS buffer for flow cytometry analysis on a BD LSRII flow cytometer as described in Section 2.3.

T10 sequence (P36941 28-227 limits assumed): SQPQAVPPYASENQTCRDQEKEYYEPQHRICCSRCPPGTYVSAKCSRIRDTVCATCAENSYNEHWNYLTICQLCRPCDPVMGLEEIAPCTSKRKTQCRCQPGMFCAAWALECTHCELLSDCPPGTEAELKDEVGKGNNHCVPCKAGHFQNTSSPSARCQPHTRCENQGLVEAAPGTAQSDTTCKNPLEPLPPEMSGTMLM
T11 sequence (P25942 21-193 limits assumed): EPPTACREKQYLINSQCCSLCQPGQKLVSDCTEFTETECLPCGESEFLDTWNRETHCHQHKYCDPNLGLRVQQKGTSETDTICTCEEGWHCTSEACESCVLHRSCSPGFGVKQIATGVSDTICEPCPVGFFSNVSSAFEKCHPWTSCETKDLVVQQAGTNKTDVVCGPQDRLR

Binder | binding result [1] | binding result [2] | binding result [3] | binding result [4] | binding result [5] | binding result [6] | binding result [7] | binding result [8] | binding result [9] | binding result [10] | binding result [11] | binding result (Mouse OX40)
B1 | no binding | no binding | no binding | no binding | no binding | no binding | no binding | no binding | no binding | no binding | no binding | 
B2 |  |  |  |  |  |  |  |  |  |  |  | binds
